Values quoted from earlier work as cited in patent US20190390191A1, “CONSTRUCTING ENZYME-BASED SENSORS” (PharmaSeq, Inc., priority 2018, published 2019).

Key:
[1] = for T. aquaticus; Yeh et al.
[2] = E. coli enzyme; Boulanger et al.

Row | Substance | Km [1] [µM] | Tm [2] [°C]
1 | Alkaline phosphatase | 840 | 
2 | Alkaline phosphatase of E. coli: zinc-containing dimeric enzyme encoded by the phoA gene of E. coli |  | 97
